According to patent US20070258992A1:

Molecular target: mouse synaptosomes

For “active botulinum neurotoxin A (from UniProt P0DPI0 2-1296)”, the maximum inhibition was 78%.
